Measured values reported in patent publication US20260055441A1, “A PCR-ELISA ANALOGOUS ANTIBODY-FREE METHOD FOR DETECTING A TARGET NUCLEIC ACID IN A SAMPLE” (UNIVERSITÄT HEIDELBERG, priority 2022, published 2026).
Where “and” joins values, the source holds several entries; their conditions need not be identical. Identical values can stand only once. No end group written: not given here.

Assays:
[1] = molecular target: T1, latent papain P13 (Carica papaya, UniProt P00784); test: Latent papain reactivation assay with thiol activators at 10 μM, rates normalized to 10 μM cysteine (FIG. 18); type: biochemical; settings: activator 10 μM, latent papain 1 nM, Z-Phe-Arg-AMC 2 μM; for reaction rate compared to L-cysteine: pH 7; for normalized ratio rate/rate 10 μM cysteine of substrate hydrolysis after reactivation of latent papain: well buffer pH 7, no TCEP
T1 construct: purchased Sigma Aldrich (Munich, Germany); host or cells: Papaya latex (natural source)
T1 sequence (P00784 134-345): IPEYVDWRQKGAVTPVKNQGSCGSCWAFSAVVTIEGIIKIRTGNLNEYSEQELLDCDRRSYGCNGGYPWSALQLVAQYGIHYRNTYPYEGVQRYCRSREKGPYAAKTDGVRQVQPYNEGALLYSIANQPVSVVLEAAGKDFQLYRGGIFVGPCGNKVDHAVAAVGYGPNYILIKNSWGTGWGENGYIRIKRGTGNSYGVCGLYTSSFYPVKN
Experimental: All following described fluorometric assays (Examples 1-3) are based on the reaction of reversibly inactivated papain (latent papain) with an activator containing either sulfur or selenium (with the exception of TCEP). Different latent papain forms, buffer compositions and activators in various concentrations were compared. Papain was hereby transferred in buffer (standard well buffer consisted of 0.1 M phosphate pH 7, 4 mM EDTA, 0.01% Brij35 and if activators contained diselenides, 1 μM TCEP) mixed with activator and substrate inside 96 well plates (without prior washing of the plates). After reactivation, active papain hydrolyses the substrate Z-Phe-Arg-AMC (2 μM) and the resulting fluorescence was tracked every minute for 2 h. The slopes of the corresponding curves were calculated for the linear portion within the first 30 minutes and the resulting reaction rates were directly compared. Resulting reaction rates directly reflect reactivation efficiencies of each activator under each reaction condition. […] After addition of activator a fraction of latent papain is immediately reactivated in rather non-stoichiometric proportions. Complete reactivation can generally only be achieved with great excess of activator. The partial reactivation with smaller activator amounts appears almost instantaneously because the resulting reaction curve show linear progression from the start except for very low activator concentrations. After reactivation, all different latent papain forms result in the same active enzyme. If different latent papain forms show different reaction rates in identical activation assays, the efficiency of reactivation with the applied activator can be deduced. The same applies for reactivation of one latent papain form with different activators or reaction conditions.
Several thiol compounds and cysteine containing peptide activators (see Example 4.1) were compared for their potential to reactivate latent papain. To this end, the thiol compounds and cysteine containing peptide activators were utilized in reactivation assays (see Example 5, 5.2.2.2, fluorometric method 2) of papain P13 (see Example 1, 1.2) with an activator concentration of 10 μM. For thiols not completely soluble in phosphate buffer pH 7 at high concentrations, the 1 mM stock solution was prepared in DMSO, resulting in 1% DMSO in the reaction mixture. In order to normalize the observed reaction rates between assays, a 10 μM cysteine sample was additionally measured in every assay and reaction rates of the examined thiols were divided through the reaction rates produced by the 10 μM cysteine standard. Additionally, a measurement with 1 mM cysteine was performed in order to achieve maximal papain activation and therefore the maximal reaction rate within the confines of the assay. The resulting normalized rates are compared in FIG. 18.
Different assays of reactivating latent papain in solution were conducted in the course of this work. Various buffer compositions, supplements, 96 well plates, substrates, activators, concentrations as well as different latent papain forms were compared. In order to get an overview of all experiments, a standard method is described in the following and variations of this method are subsequently defined. First, the well buffer was prepared (0.1 M phosphate buffer pH 7, 4 mM EDTA, 0.01% Brij35). A 1 mM TCEP solution was prepared with 3 mM NaOH in 0.1 M Tris-HCl buffer pH 8. Papain substrate (Z-Phe-Arg-AMC or Suc-Leu-Leu-Val-Tyr-AMC) was prepared as a 200 μM solution in water and transferred equally to a PCR strip. Three serial dilutions of the activating agent with well buffer were used in the different experiments and the corresponding pipetting schemes are shown in Table 9. Papain was diluted to 0.1 μM with well buffer and transferred equally to a PCR strip. After preparation of the abovementioned solutions, TCEP (1 mM solution) was added to well buffer to yield a final TCEP concentration of 1.1 μM. […]

[2] = molecular target: T1, latent papain P13; test: Screening of peptide-based papain activators, rates normalized to cysteine ethyl ester (FIG. 19, FIG. 20); type: biochemical; settings: for normalized ratio rate/rate cysteine ethyl ester (CysEE): activator 50 nM, latent papain P13 1 nM, substrate 2 μM, pH 7
Experimental: L-Cysteine ethyl ester was utilized in identical peptide concentrations as a standard in order to calculate normalized reaction rates for each synthesized peptide.
[…] The assays were conducted in well buffer with 1 nM latent papain P13. In order to give a clear overview, only the normalized rates for activator concentrations of 50 nM are depicted and compared.
Additionally, 1 μM TCEP was added to each well of the cysteine concentration series in order to examine the influence of TCEP on reaction rates of thiols.
Different assays of reactivating latent papain in solution were conducted in the course of this work. Various buffer compositions, supplements, 96 well plates, substrates, activators, concentrations as well as different latent papain forms were compared. In order to get an overview of all experiments, a standard method is described in the following and variations of this method are subsequently defined. First, the well buffer was prepared (0.1 M phosphate buffer pH 7, 4 mM EDTA, 0.01% Brij35). A 1 mM TCEP solution was prepared with 3 mM NaOH in 0.1 M Tris-HCl buffer pH 8. Papain substrate (Z-Phe-Arg-AMC or Suc-Leu-Leu-Val-Tyr-AMC) was prepared as a 200 μM solution in water and transferred equally to a PCR strip. Three serial dilutions of the activating agent with well buffer were used in the different experiments and the corresponding pipetting schemes are shown in Table 9. Papain was diluted to 0.1 μM with well buffer and transferred equally to a PCR strip. […] 342.4 μL of TCEP containing well buffer was transferred to each well, followed by 3.8 μL papain solution. After mixing, 30 μL of the prepared activator concentrations (see Table 9) were added and mixed. In the last step, 3.8 μL of the substrate solution was added and mixed, to yield a final well composition of 0.1 M phosphate buffer pH 7, 1 nM papain, 2 μM substrate, activator (see Table 9), 4 mM EDTA, 0.01% Brij35 and 1 μM TCEP. For experiments with only one activator concentration of 10 μM, the transferred well buffer for each well was 368.6 μL, followed by 3.8 μL of papain, substrate and activator (1 mM in well buffer) respectively.

[3] = molecular target: T2, latent papain, reversibly inactivated with S-methyl methanethiosulfonate (-S-S-CH3) (Carica papaya, UniProt P00784 134-345, catalytic Cys25 blocked as mixed disulfide -S-S-CH3); test: cell-based or functional assay
T2 sequence: T1 sequence (P00784 134-345)

[4] = molecular target: T3, dU-triazole-PEG3-ULR dimer (21) (not fully specified)
T3 chain: ULR

[5] = FIG. 20, concentration series 50 nM-10 μM

In the case of `OCCS` [2-ME, 2-Mercaptoethan-1-ol], the “reaction rate compared to L-cysteine” value [1] is reported as 70%.

With `CC(=O)Nc1ccc(S)cc1` [4-acetamidothiophenol, 4-Acetamidothiophenol] the “activator efficiency, in words” value [2, 5] was “more potent activators compared to the tripeptide” and the “rate relative to the tripeptide H2N-CLR-CONH2” value ([2]; concentration series 50 nM-10 μM (FIG. 20), selenocysteine prepared with TCEP) was “five times as efficient”.

With `SCc1ccc(Cl)cc1` [4-chlorobenzyl mercaptan, 4-Chlorobenzyl mercaptan] the “normalized ratio rate/rate 10 μM cysteine of substrate hydrolysis after reactivation of latent papain” value [1] was 0.83.

In the case of `Nc1nnc(S)s1` [5-Amino-1,3,4-thiadiazole-2-thiol], the “normalized ratio rate/rate 10 μM cysteine of substrate hydrolysis after reactivation of latent papain” value [1] is reported as “almost no papain activation potential at all”.

In the case of `N[C@H](CS)C(=O)O` [D-cysteine], the “reaction rate compared to L-cysteine” value [1] is reported as 70%.

`N[C@@H](CCS)C(=O)O` [L-homocysteine, L-Homocysteine] was tested, and the “normalized ratio rate/rate 10 μM cysteine of substrate hydrolysis after reactivation of latent papain” value [1] was “lower reaction rates”.

For `CC(C)(S)[C@H](N)C(=O)O` [L-penicillamine, L-Penicillamine], the “normalized ratio rate/rate 10 μM cysteine of substrate hydrolysis after reactivation of latent papain” value [1] was “lower reaction rates”.

For `O=C(O)CCP(CCC(=O)O)CCC(=O)O` [TCEP, Tris(2-carboxyethyl)phosphine], the “activator efficiency, in words” value [2, 5] was “very little efficiency”.

For `Sc1ccccc1` [thiophenol, Thiophenol], the “normalized ratio rate/rate 10 μM cysteine of substrate hydrolysis after reactivation of latent papain” value [1] was 4.86.

With “H2N-C-C-R-G-CONH2 (H-CCRG-NH2; cysteine pairing not given here) [H2N—CCRG-CONH2]” the “normalized ratio rate/rate cysteine ethyl ester (CysEE)” value [2] was “most potent activators”.

With “H2N-C-F-R-CONH2 (H-Cys-Phe-Arg-NH2) [H2N—CFR—CONH2]” the “normalized ratio rate/rate 10 μM cysteine of substrate hydrolysis after reactivation of latent papain” value [1] was “more than twice as high”.

In the case of “H2N-C-L-C-G-CONH2 (H-CLCG-NH2; cysteine pairing not given here) [H2N—CLCG-CONH2]”, the “normalized ratio rate/rate cysteine ethyl ester (CysEE)” value [2] is reported as “most potent activators”.

With “H2N-C-L-R-CONH2 (H-Cys-Leu-Arg-NH2) [H2N—CLR—CONH2]” the “potency relative to (L-)cysteine” value [2, 5] was “almost four times as efficient”, the “normalized ratio rate/rate cysteine ethyl ester (CysEE)” value [2] was 1.8 and 1.81 and the “normalized ratio rate/rate 10 μM cysteine of substrate hydrolysis after reactivation of latent papain” value [1] was “more than twice as high”.

For “H2N-C-L-R-G-CONH2 (H-CLRG-NH2) [H2N—CLRG-CONH2]”, the “normalized ratio rate/rate cysteine ethyl ester (CysEE)” value [2] was 1.29.

In the case of “H2N-C-L-R-G-COOH (H-CLRG-OH) [H2N—CLRG-COOH]”, the “normalized ratio rate/rate cysteine ethyl ester (CysEE)” value [2] is reported as 0.51.

B1: H2N-G-L-C-L-R-G-COOH (peptide)
peptide: H-GLCLRG-OH
modifications: not fully specified
With B1 the “normalized ratio rate/rate cysteine ethyl ester after reactivation of latent papain P13 (1 nM), activator 50 nM” value [3] was < 1 rate/rate cysteine ethyl ester.

B2: H2N-S-E-C-L-R-G-COOH (peptide)
peptide: H-SECLRG-OH
In the case of B2, the “normalized ratio rate/rate cysteine ethyl ester after reactivation of latent papain P13 (1 nM), activator 50 nM” value [3] is reported as < 1 rate/rate cysteine ethyl ester.

B3: H2N-E-G-C-G-R-G-COOH (peptide)
peptide: H-EGCGRG-OH
B3 was tested, and the “normalized ratio rate/rate cysteine ethyl ester after reactivation of latent papain P13 (1 nM), activator 50 nM” value [3] was < 1 rate/rate cysteine ethyl ester.

B4: H2N-CLRCG-COOH (peptide)
peptide: H-CLRCG-OH
modifications: cysteine pairing not given here
For B4, the “normalized ratio rate/rate cysteine ethyl ester after reactivation of latent papain P13 (1 nM), activator 50 nM” value [3] was 0.99 rate/rate cysteine ethyl ester.

B5: H2N-G-K-C-L-R-G-COOH (peptide)
peptide: H-GKCLRG-OH
In the case of B5, the “normalized ratio rate/rate cysteine ethyl ester after reactivation of latent papain P13 (1 nM), activator 50 nM” value [3] is reported as < 1 rate/rate cysteine ethyl ester.

B6: H2N-G-G-C-G-G-G-COOH (peptide)
peptide: H-GGCGGG-OH
For B6, the “normalized ratio rate/rate cysteine ethyl ester after reactivation of latent papain P13 (1 nM), activator 50 nM” value [3] was < 1 rate/rate cysteine ethyl ester.

B7: H2N-CLRG-CONH2 (peptide)
peptide: H-CLRG-NH2
For B7, the “normalized ratio rate/rate cysteine ethyl ester after reactivation of latent papain P13 (1 nM), activator 50 nM” value [3] was 1.29 rate/rate cysteine ethyl ester.

B8: latent papain P23 (-S-S-(CH2)2-NH2) (protein)
chain: T1 sequence (P00784 134-345)
B8 was tested, and the “reaction rate of Z-Phe-Arg-AMC hydrolysis after reactivation of latent papain (1 nM) with activator 1-15 nM” value [4] was “papain P23, containing the positively charged amino group, was found to be by far the most efficiently reactivated latent papain form”.

B9: dU-triazole-PEG3-ULR dimer (21) (peptide)
peptide: X-Leu-Arg-NH2
modifications: not fully specified (residue 1, N-terminus); printed as dU-triazole-PEG3-ULR; also: diselenide dimer
B9 was tested, and the “normalized ratio rate/rate blank, P20 against P28” value [3] was 2 fold of the normalized rate of P28, the “normalized ratio rate/rate blank, activator at half equimolar concentration of papain (printed 500 µM; papain 1 nM)” value [3] was 33 fold of the background activity and the “normalized ratio rate/rate blank, activator at the lowest concentration (printed 50 µM; series starts at 50 pM)” value [3] was 4 fold of the background activity. The “reaction rate after reactivation of latent papain (1 nM), activator 10 nM, against DTBA (9)” value [3] was 23 fold of the rate with DTBA (9), the “reaction rate after reactivation of latent papain (1 nM), activator 10 nM, against DTT” value [3] was 159 fold of the rate with DTT and the “reaction rate after reactivation of latent papain (1 nM), activator 50 nM, against DTBA (9)” value [3] was 9 fold of the rate with DTBA (9). For the same molecule, the “reaction rate after reactivation of latent papain (1 nM), activator 50 nM, against DTT” value [3] was 128 fold of the rate with DTT.

B10: H2N-CLR-CONH2 (peptide)
peptide: H-Cys-Leu-Arg-NH2
With B10 the “normalized ratio rate/rate cysteine ethyl ester after reactivation of latent papain P13 (1 nM), activator 50 nM” value [3] was 1.81 rate/rate cysteine ethyl ester and the “reaction rate after reactivation of latent papain P13 (1 nM), concentration series 50 nM-10 uM, against free cysteine” value [3] was ~4 fold of free cysteine.

B11: H2N-F-V-C-E-K-G-COOH (peptide)
peptide: H-FVCEKG-OH
With B11 the “normalized ratio rate/rate cysteine ethyl ester after reactivation of latent papain P13 (1 nM), activator 50 nM” value [3] was < 1 rate/rate cysteine ethyl ester.

B12: H2N-CLRG-COOH (peptide)
peptide: H-CLRG-OH
For B12, the “normalized ratio rate/rate cysteine ethyl ester after reactivation of latent papain P13 (1 nM), activator 50 nM” value [3] was 0.51 rate/rate cysteine ethyl ester.
